# Test results: the RNAGym collection of RNA variant scans (doi:10.7554/elife.80360)
# B1: CPEB3 Ribozyme (parent)
# chain: GGGGGCCACAGCAGAAGCGUUCACGUCGCGGCCCCUGUCAGAUUCUGGUGAAUCUGCGAAUUCUGCUGU
# Variants of: B1
# Assay: self-cleavage, relative activity (ratio to wild type); higher = more cleavage; co-transcriptional
row,Variant,self-cleavage
1,GGGGGCCACAGCAGAAGCGCUCACGUCGCGGCCCCUGUCAGGUUCUGGUGAAUCUGCGAAUUCUGCUGU [U20C A42G],0.161
2,GGGGGCCACAGCAGAAGCGAUCACGUCGCGGCCCCGGUCAGAUUCUGGUGAAUCUGCGAAUUCUGCUGU [U20A U36G],0.201
3,GGGGGCCACAGCAGAAGCGAUCACGUCGCGGCCCCCGUCAGAUUCUGGUGAAUCUGCGAAUUCUGCUGU [U20A U36C],0.149
4,GGGGGCCACAGCAGAAGCGAUCACGCCGCGGCCCCUGUCAGAUUCUGGUGAAUCUGCGAAUUCUGCUGU [U20A U26C],0.106
5,GGGGGCCACAGCAGAAGCGAUCACGGCGCGGCCCCUGUCAGAUUCUGGUGAAUCUGCGAAUUCUGCUGU [U20A U26G],0.182
6,GGGGGCCACAGCAGAAGCGAUCACGUCGCGGCCCCUGUCAGAUCCUGGUGAAUCUGCGAAUUCUGCUGU [U20A U44C],0.139
7,GGGGGCCACAGCAGAAGCGAUCACGUCGCGGCCCCUGUCAGAUACUGGUGAAUCUGCGAAUUCUGCUGU [U20A U44A],0.15
8,GGGGGCCACAGCAGAAGCGAUCACGUCGCGGCCCCUGUCAGAUGCUGGUGAAUCUGCGAAUUCUGCUGU [U20A U44G],0.204
9,GGGGGCCACAGCAGAAGCGCUCACGUCGCGGCCCCUGUCGGAUUCUGGUGAAUCUGCGAAUUCUGCUGU [U20C A40G],0.212
10,GGGGGCCACAGCAGAAGCGAUCACGUCGCGGCCCCUGUCACAUUCUGGUGAAUCUGCGAAUUCUGCUGU [U20A G41C],0.133
11,GGGGGCCACAGCAGAAGCGAUCACGUCGCGGCCCCUGUCAGAGUCUGGUGAAUCUGCGAAUUCUGCUGU [U20A U43G],0.123
12,GGGGGCCACAGCAGAAGCGAUCACGUCGCGGCCCCUGUCAGACUCUGGUGAAUCUGCGAAUUCUGCUGU [U20A U43C],0.154
13,GGGGGCCACAGCAGAAGCGCUCACGUCGCGGCCCCUGUCAGAUUCUGGUGGAUCUGCGAAUUCUGCUGU [U20C A51G],0.272
14,GGGGGCCACAGCAGAAGCGCUCACGUCGCGGCCCCUGUCAGAUUCUGGUGAAUCUGCGUAUUCUGCUGU [U20C A59U],0.15
15,GGGGGCCACAGCAGAAGCGCUCACGUCGCGGCCCCUGUCAGAUUCUGGUGAAUCUGCGGAUUCUGCUGU [U20C A59G],0.277
16,GGGGGCCACAGCAGAAGCGCUCACGUCGCGGCCCCUGUCAGAUUCUGGUGAAUCUGCGCAUUCUGCUGU [U20C A59C],0.124
17,GGGGGCCACAGCAGAAGCGAUCACGUCGCGGCCCCUGUCAGAUUCUGGUGAACCUGCGAAUUCUGCUGU [U20A U53C],0.154
18,GGGGGCCACAGCAGAAGCGAUCACGUCGCGGCCCCUGUCAGAUUCUGGUGAAACUGCGAAUUCUGCUGU [U20A U53A],0.0892
19,GGGGGCCACAGCAGAAGCGAUCACGUCGCGGCCCCUGUCAGAUUCUGGUGAAGCUGCGAAUUCUGCUGU [U20A U53G],0.136
20,GGGGGCCACAGCAGAAGCGAUCACAUCGCGGCCCCUGUCAGAUUCUGGUGAAUCUGCGAAUUCUGCUGU [U20A G25A],0.198
21,GGGGGCCACAGCAGAAGCGAUCACUUCGCGGCCCCUGUCAGAUUCUGGUGAAUCUGCGAAUUCUGCUGU [U20A G25U],0.135
22,GGGGGCCACAGCAGAAGCGAUCACCUCGCGGCCCCUGUCAGAUUCUGGUGAAUCUGCGAAUUCUGCUGU [U20A G25C],0.165
23,GGGGGCCACAGCAGAAGCGAUCACGUCGCGGCCCCUGUCAGAUUCUGGUGAAUCUGCGAAUUCUUCUGU [U20A G65U],0.19
24,GGGGGCCACAGCAGAAGCGAUCACGUCGCGGCCCCUGUCAGAUUCUGGUGAAUCUGCGAAUUCUCCUGU [U20A G65C],0.113
25,GGGGGCCACAGCAGAAGCGAUCACGUCGCGGCCCCUGUCAGAUUCUGGUGAAUCUGCGAAAUCUGCUGU [U20A U61A],0.123
26,GGGGGCCACAGCAGAAGCGAUCACGUCGCGGCCCCUGUCAGAUUCUGGUGAAUCUGCGAACUCUGCUGU [U20A U61C],0.137

row,Variant,self-cleavage
1,GGGGGCCACAGCAGAAGCGAUCACGUCGCGGCCCCUGUCAGAUUCUGGUGAAUCUGCGAAGUCUGCUGU [U20A U61G],0.137
2,GGGGGCCACAGCAGAAGCGAUCACGUCGCGGCCCCUGUCAGAUUCUGGUGAAUCUGCGAAUACUGCUGU [U20A U62A],0.0929
3,GGGGGCCACAGCAGAAGCGAUCACGUCGCGGCCCCUGUCAGAUUCUGGUGAAUCUGCUAAUUCUGCUGU [U20A G58U],0.152
4,GGGGGCCACAGCAGAAGCGAUCACGUCGCGGCCCCUGUCAGAUUCUGGUGAAUCUGCAAAUUCUGCUGU [U20A G58A],0.208
5,GGGGGCCACAGCAGAAGCGAUCACGUCGCGGCCCCUGUCAGAUUCUGGUGAAUCAGCGAAUUCUGCUGU [U20A U55A],0.237
6,GGGGGCCACAGCAGAAGCGAUCACGUCGCGGCCCCUGUCAGAUUCUGGUGAAUCCGCGAAUUCUGCUGU [U20A U55C],0.118
7,GGGGGCCACAGCAGAAGCGAUCACGUCGCGGCCCCUGUCAGAUUCUGGUGAAUCGGCGAAUUCUGCUGU [U20A U55G],0.112
8,GGGGGCCACAGCAGAAGCGCUGACGUCGCGGCCCCUGUCAGAUUCUGGUGAAUCUGCGAAUUCUGCUGU [U20C C22G],0.214
9,GGGGGCCACAGCAGAAGCGCUCUCGUCGCGGCCCCUGUCAGAUUCUGGUGAAUCUGCGAAUUCUGCUGU [U20C A23U],0.257
10,GGGGGCCACAGCAGAAGCGCUCCCGUCGCGGCCCCUGUCAGAUUCUGGUGAAUCUGCGAAUUCUGCUGU [U20C A23C],0.243
11,GGGGGCCACAGCAGAAGCGAUCACGUCGCGGCCCCUGUCAGAUUCUGGUGAAUCUGCGAAUUCUGUUGU [U20A C66U],0.205
12,GGGGGCCACAGCAGAAGCGAUCACGUCGCGGCCCCUGUCAGAUUCUGGUGAAUCUGCGAAUUCUGGUGU [U20A C66G],0.133
13,GGGGGCCACAGCAGAAGCGCUCACGUCGCGGCCCCUGUCAGAUUCUGGUGAAUCUGCGAUUUCUGCUGU [U20C A60U],0.208
14,GGGGGCCACAGCAGAAGCGCUCACGUCGCGGCCCCUGUCAGAUUCUGGUGAAUCUGCGACUUCUGCUGU [U20C A60C],0.142
15,GGGGGCCACAGCAGAAGCGCUCACGUCGCGGCCCCUGUCAGAUUCUGGUGAAUCUGCGAGUUCUGCUGU [U20C A60G],0.166
16,GGGGGCCACAGCAGAAGCGAUCACGUCGCGGCCCCUGUCAGAUUCUGGUGAAUCUUCGAAUUCUGCUGU [U20A G56U],0.217
17,GGGGGCCACAGCAGAAGCGAUCACGUCGCGGCCCCUGUCAGAUUCUGGUGAAUCUCCGAAUUCUGCUGU [U20A G56C],0.113
18,GGGGGCCACAGCAGAAGCGAUCACGUCGCGGCCCCUGUCAGAUUCUGGUGAAUCUACGAAUUCUGCUGU [U20A G56A],0.184
19,GGGGGCCACAGCAGAAGCGCUCACGUCGCGGCCCCUGUCAGAUUCUGGUGACUCUGCGAAUUCUGCUGU [U20C A52C],0.181
20,GGGGGCCACAGCAGAAGCGCUCACGUCGCGGCCCCUGUCAGAUUCUGGUGAUUCUGCGAAUUCUGCUGU [U20C A52U],0.109
21,GGGGGCCACAGCAGAAGCGAUCACGUCGCGGCCCCUCUCAGAUUCUGGUGAAUCUGCGAAUUCUGCUGU [U20A G37C],0.156
22,GGGGGCCACAGCAGAAGCGAUCACGUCGCGGCCCCUAUCAGAUUCUGGUGAAUCUGCGAAUUCUGCUGU [U20A G37A],0.13
23,GGGGGCCACAGCAGAAGCGAUCACGUCGCGGCCCCUGUCAGAUUCUGAUGAAUCUGCGAAUUCUGCUGU [U20A G48A],0.124
24,GGGGGCCACAGCAGAAGCGAUCACGUCGCGACCCCUGUCAGAUUCUGGUGAAUCUGCGAAUUCUGCUGU [U20A G31A],0.135
25,GGGGGCCACAGCAGAAGCGAUCACGUCGCGUCCCCUGUCAGAUUCUGGUGAAUCUGCGAAUUCUGCUGU [U20A G31U],0.17
26,GGGGGCCACAGCAGAAGCGAUCACGUCGCGCCCCCUGUCAGAUUCUGGUGAAUCUGCGAAUUCUGCUGU [U20A G31C],0.0954

row,Variant,self-cleavage
1,GGGGGCCACAGCAGAAGCGAUCACGUCGCGGCCCCUGUCAGAUUCUGGUGAAUCUGCGAAUUCUGCCGU [U20A U67C],0.127
2,GGGGGCCACAGCAGAAGCGAUCACGUCGCGGCCCCUGUCAGAUUCUGGUGAAUCUGCGAAUUCUGCGGU [U20A U67G],0.271
3,GGGGGCCACAGCAGAAGCGAUCACGUCGCGGCCCCUGUCAGAUUCAGGUGAAUCUGCGAAUUCUGCUGU [U20A U46A],0.216
4,GGGGGCCACAGCAGAAGCGAUCACGUCGCGGCCCCUGUCAGAUUCGGGUGAAUCUGCGAAUUCUGCUGU [U20A U46G],0.128
5,GGGGGCCACAGCAGAAGCGAUCACGUCGCGGCCCCUGUCAGAUUCCGGUGAAUCUGCGAAUUCUGCUGU [U20A U46C],0.0817
6,GGGGGCCACAGCAGAAGCGAUCACGUCGCGGCCCCUGUCAGAUUCUGGUGAAUCUGCGAAUUCUGCUAU [U20A G68A],0.196
7,GGGGGCCACAGCAGAAGCGAUCACGUCGCGGCCCCUGUCAGAUUCUGGUGAAUCUGCGAAUUCUGCUUU [U20A G68U],0.142
8,GGGGGCCACAGCAGAAGCGAUCACGUCGCGGCCCCUGUCAGAUUCUGGUGAAUCUGCGAAUUCUGCUCU [U20A G68C],0.253
9,GGGGGCCACAGCAGAAGCGACCACGUCGCGGCCCCUGUCAGAUUCUGGUGAAUCUGCGAAUUCUGCUGU [U20A U21C],0.0963
10,GGGGGCCACAGCAGAAGCGAUCACGUCGCGGCCCCUGUCAGAUUCUGGUGAAUCUGCGAAUUCUGCUGC [U20A U69C],0.225
11,GGGGGCCACAGCAGAAGCGAUCACGUCGCGGCCCCUGUCAGAUUCUGGUGAAUCUGCGAAUUCUGCUGG [U20A U69G],0.282
12,GGGGGCCACAGCAGAAGCGAUCACGUCGCGGCCCCUGUCAGAUUCUGGUCAAUCUGCGAAUUCUGCUGU [U20A G50C],0.188
13,GGGGGCCACAGCAGAAGCGAUCACGUCGCGGCCCCUGUCAGAUUCUGGUUAAUCUGCGAAUUCUGCUGU [U20A G50U],0.141
14,GGGGGCCACAGCAGAAGCGAUCACGUCGCCGCCCCUGUCAGAUUCUGGUGAAUCUGCGAAUUCUGCUGU [U20A G30C],0.141
15,GGGGGCCACAGCAGAAGCGAUCACGUCGCUGCCCCUGUCAGAUUCUGGUGAAUCUGCGAAUUCUGCUGU [U20A G30U],0.109
16,GGGGGCCACAGCAGAAGCGAUCACGUCGCAGCCCCUGUCAGAUUCUGGUGAAUCUGCGAAUUCUGCUGU [U20A G30A],0.192
17,GGGGGCCACAGCAGAAGCGAUCACGUCCCGGCCCCUGUCAGAUUCUGGUGAAUCUGCGAAUUCUGCUGU [U20A G28C],0.14
18,GGGGGCCACAGCAGAAGCGAUCACGUCACGGCCCCUGUCAGAUUCUGGUGAAUCUGCGAAUUCUGCUGU [U20A G28A],0.12
19,GGGGGCCACAGCAGAAGCGAUCACGUCUCGGCCCCUGUCAGAUUCUGGUGAAUCUGCGAAUUCUGCUGU [U20A G28U],0.182
20,GGGGGCCACAGCAGAAGCGAUCACGUCGCGGCCCCUGUCAGAUUCUGGUGAAUCUGCGAAUUCGGCUGU [U20A U64G],0.11
21,GGGGGCCACAGCAGAAGCGAUCACGUCGCGGCCCCUGUCAGAUUCUGGUGAAUCUGCGAAUUCCGCUGU [U20A U64C],0.122
22,GGGGGCCACAGCAGAAGCGAUCACGUCGCGGCCCCUGUCAGAUUCUGGUGAAUCUGCGAAUUCAGCUGU [U20A U64A],0.326
23,GGGGGCCACAGCAGAAGCGAUCACGUCGCGGCCCCUGUCAGAUUCUGGAGAAUCUGCGAAUUCUGCUGU [U20A U49A],0.125
24,GGGGGCCACAGCAGAAGCGCUCACGUCGCGGCCCCUGUCAGAUUCUGGUGAAUCUGCGAAUUCUGCUGU [U20C],0.222
25,GGGGGCCACAGCAGAAGCGAUCACGUCGCGGCCCCUGUCAGAUUCUAGUGAAUCUGCGAAUUCUGCUGU [U20A G47A],0.176
26,GGGGGCCACAGCAGAAGCGAUCACGUCGCGGCCCCUGGCAGAUUCUGGUGAAUCUGCGAAUUCUGCUGU [U20A U38G],0.23
